Assay results as given in patent publication US20170240920A1 (UCL BUSINESS, published 2017).
No end group written: not given here.

B1: Flankedccstreptag-d8-x2-GPI (other)
chain: ECHPQGPPCIEGRKSSGGGGSPAPRPPTPAPTIASECHPQGPPCIEGRKS
modifications: cysteine pairing not given here; also: GPI anchor at C-terminal side, attached after further residues not given here
notes: Two copies of the tag separated by a CD8-based linker; also called MP13024; Flankedccstreptag GPI (x2); not shown: residues between the second tag and the GPI attachment site
B2: StreptagII-d8-x2 on a GPI anchor (other)
chain: WSHPQFEKSGGGGSPAPRPPTPAPTIASWSHPQFEK
modifications: also: GPI anchor at C-terminal side, attached after further residues not given here
notes: Two copies of the tag separated by a CD8-based linker; expressed on the surface of transfected HEK 293T cells; also called StreptagII GPI (x2); Streptagll-d8-x2; not shown: residues between the second tag and the GPI attachment site

Biological target: T1, Streptavidin (Streptomyces avidinii, UniProt P22629 37-163, limits assumed)
T1 construct: The same protein was used as APC conjugate (flow cytometry) and on beads (sorting, virus capture); also called Streptavidin-APC; Streptavidin conjugated to Allophycocyanin
T1 sequence (P22629 37-163 limits assumed): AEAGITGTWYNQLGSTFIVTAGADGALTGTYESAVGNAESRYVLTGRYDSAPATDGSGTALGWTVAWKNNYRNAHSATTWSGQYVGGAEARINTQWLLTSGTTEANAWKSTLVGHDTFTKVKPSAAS
Assay: flow cytometry, Streptavidin-APC staining of transfected 293T cells

Binder | binding result
B1 | binds
B2 | binds
